Here are results for seven molecules from patent US20200270365A1 (JIANGSU HENGRUI MEDICINE, published 2020).

Assay [1] concerns the target T1, PCSK9 with His-tag: PCSK9-His6 (human, UniProt Q8NBP7 153-692; A8T644 31-152).
T1 construct: also called huPCSK9; human PCSK9 antigen
Description: SPR Biacore, antibody captured by human Fab capture molecule on CM5, PCSK9-His6 mobile phase. The text has this: According to the method described in the human Fab capture kit (Cat. #28-9583-25, GE), the human Fab capture molecule was covalently linked to the CM5 biochip (Cat. #BR-1000-12, GE) so that the PCSK9 antibodies of the present invention were affinity captured. Then, human PCSK9 antigen (PCSK9 with His tag: PCSK9-His6, SEQ ID NO: 1) flowed through the surface of the biochip, and the reaction signal was detected in real time using a Biacore instrument to obtain the association and dissociation curves. Finally, the affinity values were obtained by fitting and are shown at table 16 below. After each cycle of dissociation was finished, the biochip was washed and regenerated with regeneration solution in the human Fab capture kit (GE).
A general note: SPR reads the build-up and loss of mass on a sensor chip optically.

The target of assay [2] is T2, PCSK9 protein inserted with biotin receiving peptide BP15 and His-tag: PCSK9-BP15-His6 (human, UniProt Q8NBP7 153-692; A8T644 31-152, biotin on the BP15 biotin receiving peptide (labeled during the expression)).
T2 construct: also called WT PCSK9; PCSK9 WT
In words: ELISA, biotin PCSK9 on streptavidin plate. The procedure: The binding ability of anti-PCSK9 antibodies of the present invention to PCSK9 protein (WT PCSK9, SEQ ID NO: 5) was detected by measuring the amounts of antibodies binding to PCSK9 immobilized on the ELISA plate.
(§1) Streptavidin (sigma, CAT #S4762) was diluted to 2 μg/ml with PBS and was added into a 96-well ELISA plate, at 4° C. for overnight. The plate was washed and then was blocked with Tris buffer (including 0.9 mM CaCl₂, 0.05% Tween 20 and 5% skim milk) at 37° C. for 2 hours. Then the plate was washed again and 100 μl/well of biotin-labeled PCSK9 (produced in-house, diluted with Tris buffer containing 0.9 mM CaCl₂, 0.05% Tween 20 and 1% skim milk) was added and incubated at 37° C. for 1 hour. After the wash step various concentrations of diluted PCSK9 antibody samples was added to the plate and incubated at 37° C. for 1 hour. […] Then the plate was washed and tetramethyl brenzidine solution was added for development. Finally, the stop buffer was added and the OD450 value was measured on the Microplate reader, and then EC50 was calculated.
On the technique in general: ELISA stands for enzyme-linked immunosorbent assay.

Assay [3] concerns the target T3, PCSK9 D374Y mutant protein inserted with biotin receiving peptide BP15 and His-tag: PCSK9-D374Y-BP15-His6 (human, UniProt Q8NBP7 153-692; A8T644 31-152, biotin on the BP15 biotin receiving peptide).
T3 construct: also called PCSK9-Y; mutant PCSK9
Description: ELISA, biotin PCSK9-Y on streptavidin plate. On the procedure: The binding ability of anti-PCSK9 antibodies of the present invention to PCSK9-Y protein (mutant PCSK9, SEQ ID NO: 6) was detected by measuring the amounts of antibodies binding to PCSK9-Y immobilized on the ELISA plate.
as §1, with “hours. The” for “hours. Then the”, “washed” for “washed again”, “biotin-labeled PCSK9-Y” for “biotin-labeled PCSK9”, “wash step,” for “wash step”, “samples were” for “samples was”

Assay [4] has as its target T2, PCSK9 protein inserted with biotin …. Description: competition ELISA, LDLR-FC coated, biotin PCSK9 + antibody. On the procedure:
The blocking ability of PCSK9 antibodies according to the present invention for the binding of LDLR-FC (produced in-house, with sequence of SEQ ID NO: 8) and PCSK9 (SEQ ID NO: 5) was tested by measuring the amount of PCSK9 binding to LDLR in the presence of the antibodies.
(§2) LDLR-FC was diluted to 5 μg/ml with phosphate buffer and was added into the 96-well ELISA plate, kept at 4° C. overnight. The plate was washed and then blocked with Tris buffer (including 0.9 mM CaCl₂, 0.05% Tween 20 and 5% skim milk) at 37° C. for 2 hours. Then the plate was washed and 100 μl/well of mixture of biotin-labeled PCSK9 (diluted to 2 μg/ml with Tris buffer containing 0.9 mM CaCl₂, 0.05% Tween 20 and 1% skim milk) and antibody samples (diluted with Tris buffer containing 0.9 mM CaCl₂, 0.05% Tween 20 and 1% skim milk) was added and incubated at 37° C. for 1 hour. Then the plate was washed again and horseradish peroxidase-streptavidin (sigma, CAT #S2438) was added and incubated at 37° C. for 1 hour. Then the plate was washed and tetramethyl brenzidine solution was added for development. Finally, the stop buffer was added and OD450 value was measured on the Microplate reader, then IC50 value was calculated.

The target in assay [5] is T3, PCSK9 D374Y mutant protein inserted …. In words: competition ELISA, LDLR-FC coated, biotin PCSK9-Y + antibody. The procedure: The blocking ability of PCSK9 antibodies according to the present invention for the binding of LDLR-FC and PCSK9-Y (mutant PCSK9, SEQ ID NO: 6) was tested by measuring the amount of PCSK9-Y binding to LDLR in the presence of the antibodies.
as §2, with “LDLR-FC (produced in-house, with sequence of SEQ ID NO: 8)” for “LDLR-FC”, “to 2” for “to 5”, “plate,” for “plate, kept”, “biotin-labeled mutant” for “biotin-labeled”, “to 1” for “to 2”

Residue numbers refer to the chain shown, from its start. Names and notes keep the numbering of the source.

B1: h011-3133-WT: h011-3133-IgG1 format (antibody)
heavy: not shown
light: DIVMTQSPSSLSASVGDRVTITCKASQNVYTAVAWYQQKPGKSPKLLIYSASNRYTGVPSRFSGSGSGTDFTLTISSLQPEDFATYFCQQYSSYPYTFGGGTKVEIKRTVAAPSVFIFPPSDEQLKSGTASVVCLLNNFYPREAKVQWKVDNALQSGNSQESVTEQDSKDSTYSLSSTLTLSKADYEKHKVYACEVTHQGLSSPVTKSFNRGEC
notes: Human IgG1 heavy chain constant region, human kappa light chain
By Kd is commonly meant the free concentration of one partner at which half of the binding sites on the other are occupied at equilibrium, for simple one-to-one binding. A high value points to lower affinity. For the molecule B1, in assay [1], the Kd was below 0.0526 nM.

B2: h011-3133-YTE: h011-3133-IgG1-YTE format (antibody)
heavy: QVQLVQSGAEVKKPGASVKVSCKASGYTFTGYEIHWVRQAPGQGLEWMGYINPSATYTKFNQKFKDRVTMTRDTSISTAYMELSRLRSDDTAVYYCARERIYSNYWFFDVWGQGTTVTVSSASTKGPSVFPLAPSSKSTSGGTAALGCLVKDYFPEPVTVSWNSGALTSGVHTFPAVLQSSGLYSLSSVVTVPSSSLGTQTYICNVNHKPSNTKVDKKVEPKSCDKTHTCPPCPAPELLGGPSVFLFPPKPKDTLYITREPEVTCVVVDVSHEDPEVKFNWYVDGVEVHNAKTKPREEQYNSTYRVVSVLTVLHQDWLNGKEYKCKVSNKALPAPIEKTISKAKGQPREPQVYTLPPSRDELTKNQVSLTCLVKGFYPSDIAVEWESNGQPENNYKTTPPVLDSDGSFFLYSKLTVDKSRWQQGNVFSCSVMHEALHNHYTQKSLSLSPGK
light: B1 light
notes: Mutant human IgG1 (YTE: M252Y, S254T, T256E, EU numbering), human kappa light chain
With B2, in assay [1], the Kd is below 0.0518 nM.

B3: h011-3191 (antibody, V domains shown)
VH: QVQLVQSGAEVKKPGASVKVSCKASGYTFTGYTIHWVRQAPGQGLEWMGYIVPSSTYTKFNQKFKDRVTMTRDTSISTAYMELSRLRSDDTAVYYCARERIYSNYWFFDVWGQGTTVTVSS
VL: DIVMTQSPSSLSASVGDRVTITCKASQNVYTAVAWYQQKPGKSPKLLIYSASNRYTGVPSRFSGSGSGTDFTLTISSLQPEDFATYFCQQYSSYPYTFGGGTKVEIK
What is called EC50 is the concentration at which the effect is half-maximal. One may read the IC50 as the midpoint of a concentration-inhibition curve. For the molecule B3, the EC50 in assay [2] turned out to be 0.00631 µg/mL; in assay [3] it was 0.0066 µg/mL. In addition, the IC50 turned out to be 0.74 µg/mL in assay [4] and 0.226 µg/mL in assay [5].

B4: h011-3195 (antibody, V domains shown)
VH: B3 VH with V52N, Y102F
VL: B3 VL
In the case of B4, the values for the EC50 in assay [2] and in assay [3] were 0.00679 µg/mL and 0.0218 µg/mL, respectively. For the same molecule, the figures for the half-maximal inhibitory concentration (IC50) in assay [4] and in assay [5] were 2.25 µg/mL and 0.689 µg/mL, respectively.

B5: h011-3194 (antibody, V domains shown)
VH: B3 VH with V52N
VL: B3 VL with Y91L
For B5, the EC50 in assay [2] stood at 0.00469 µg/mL; in assay [3], 0.0169 µg/mL. Further, the IC50 in assay [4] worked out at 0.628 µg/mL; in assay [5], 0.579 µg/mL.

B6: h011-3192 (antibody, V domains shown)
VH: B3 VH with V52N
VL: B3 VL with A32E
As for B6, the EC50 is 0.00664 µg/mL in assay [2] and 0.127 µg/mL in assay [3]. Further, the IC50 in assay [4] turned out to be 0.698 µg/mL; in assay [5], 2.36 µg/mL.

B7: h011-3193 (antibody, V domains shown)
VH: B3 VH with V52N
VL: B3 VL with A34D
As for B7, the figures for the EC50 in assay [2] and in assay [3] were 0.0047 µg/mL and 0.0221 µg/mL, respectively. For the same molecule, the IC50 in assay [4] was 0.621 µg/mL; in assay [5], 0.871 µg/mL.
